Positions count from the first letter of the chain named. Numbers in names are those of the source. Where two headings read alike, the source gives them in different places. Where only a bound is given, the exact number is not on record here.

The record followed here is US20260125469A1 (Hoffmann-La Roche, published 2026).

Assay [1] deals with T1, human GPRC5D on stably transduced CHO-K1 cells (human, UniProt Q9NZD1 1-345).
T1 construct: whole, on cells; also called CHO-hGPRC5D cells
Description: flow cytometry on CHO-K1 cells stably transduced with human GPRC5D, performed as in Example 11. As to the method: The binding of the CEACAM5-TCB molecules prepared in Example 7 was tested on CEACAM5 (CEA)-positive tumor cells (LS-180 cells, ECACC #87021202) and CD3-expressing immortalized T lymphocyte cells (GloResponse Jurkat NFAT-RE-luc2P; Promega, #CS176501). Briefly, adherent LS-180 cells were detached, using Cell Dissociation Buffer (Gibco), counted, checked for viability and re-suspended at 2 million cells per ml in FACS buffer (PBS with 0.1% BSA). Likewise, Jurkat suspension cells were harvested and plated for subsequent stainings. 100 μl of the cell suspension (containing 0.2 million cells) were incubated in round-bottom 96-well plates for 30 min at 4° C. with increasing concentrations of the CEACAM5-TCB molecules (4 pM-300 nM). Cells were washed twice with cold PBS 0.1% BSA (FACS buffer), re-incubated for further 30 min at 4° C. with the Alexa Fluor 647-conjugated AffiniPure F(ab′)2 Fragment Goat Anti-Human IgG, Fcγ Fragment Specific Antibody (Jackson Immuno Research Lab #109-606-008, diluted 1:50 in FACS buffer) and washed twice with cold PBS 0.1% BSA thereafter. The staining was fixed for 20 min at 4° C. in the dark, using 150 μl of 2% PFA in FACS buffer per well. Fluorescence was analyzed by FACS using a FACS Fortessa (Software FACS Diva). Binding curves were obtained using GraphPadPrism6.
The binding of the GPRC5D-TCB molecules prepared in Example 7 was tested using CHO-transfectants stably transduced to express human GPRC5D (CHO-K1, ATCC) and CD3-expressing immortalized T lymphocyte cells (GloResponse Jurkat NFAT-RE-luc2P; Promega, #CS176501). The experiment was performed as described in Example 11.
(In general: In flow cytometry, cells or beads pass a laser one at a time.)

The target in assay [2] is T2, Human CD3ε stalk-Fc(knob)-Avi/CD3δ stalk-Fc(hole) (human).
T2 construct: Heterodimer of CD3 delta and CD3 epsilon ectodomains fused to human Fc with knob-into-hole; also called human CD3ε/δ; CD3 antigen
Description: SPR, TCB captured by anti-PG antibody, antigen as analyte, 25°C. An excerpt: (§1) For affinity measurements, TCB molecules were captured on a C1 sensorchip (GE Healthcare) surface with immobilized anti-Fc(P329G) IgG (an antibody that specifically binds human IgG₁ Fc(P329G); “anti-PG antibody”—see WO 2017/072210, incorporated herein by reference). The experimental setup is schematically depicted in FIG. 3. Capture IgG was coupled to the sensorchip surface by direct immobilization of around 400 resonance units (RU) using the standard amine coupling kit (GE Healthcare Life Sciences).
(§2) Kinetic constants were derived using the Biacore T200 Evaluation Software (GE Healthcare Life Sciences), to fit rate equations for 1:1 Langmuir binding by numerical integration. The half-life (t_{1/2}) of the interaction was calculated using the formula t_{1/2}=ln2/koff.
(§3) To analyze the interaction to CD3, TCB molecules were captured for 240 s at 25 nM with a flow rate of 10 μl/min. Human and cynomolgus CD3F stalk-Fc(knob)-Avi/CD36-stalk-Fc(hole) were passed at a concentration of 0.14-100 nM with a flow rate of […] through the flow cells for 240 s. The dissociation was monitored for 800 s.

Assay [3] addresses T3, Cynomolgus CD3ε stalk-Fc(knob)-Avi/CD3δ stalk-Fc(hole) (cynomolgus).
T3 construct: also called cynomolgus CD3ε/δ
The description is as above.
From the text: as §1, §2, §3

The target of assay [4] is human CD3 on cells (CD3ε) (human, UniProt P07766 23-207). Description: cell-based or functional assay.
For assay [5], the target named is T2, Human CD3ε stalk-Fc(knob)-Avi/CD3δ …. In words: SPR on immobilized human CD3ε/δ after stress, relative to sample kept at -80°C pH 6. As for the experimental part: (§4) In order to assess the effect of the deamidation site removal and its effect on the stability of the antibodies, the optimized anti-CD3 antibodies (in TCB format) were incubated for 14 days at 37° C., pH 7.4 and at 40° C., pH 6 and further analyzed by SPR for their binding capability to human CD3ε/δ. Samples stored at −80° C. pH 6 were used as reference. The reference samples and the samples stressed at 40° C. were in 20 mM His, 140 mM NaCl, pH 6.0, and the samples stressed at 37° C. in PBS, pH 7.4, all at a concentration of 1.0 mg/ml. After the stress period (14 days) samples in PBS were dialyzed back to 20 mM His, 140 mM NaCl, pH 6.0 for further analysis.
(§5) All SPR experiments were performed on a Biacore T200 instrument (GE Healthcare) at 25° C. with HBS-P+ (10 mM HEPES, 150 mM NaCl pH 7.4, 0.05% Surfactant P20) as running and dilution buffer. Biotinylated human CD3ε/δ (see Example 3, SEQ ID NOs 41 and 42) as well as biotinylated anti-huIgG (Capture Select, Thermo Scientific, #7103262100) were immobilized on a Series S Sensor Chip SA (GE Healthcare, #29104992), resulting in surface densities of at least 1000 resonance units (RU). Anti-CD3 antibodies with a concentration of 2 μg/ml were injected for 30 s at a flow rate of 5 μl/min, and dissociation was monitored for 120 s. The surface was regenerated by injecting 10 mM glycine pH 1.5 for 60 s. Bulk refractive index differences were corrected by subtracting blank injections and by subtracting the response obtained from a blank control flow cell. For evaluation, the binding response 5 seconds after injection end was taken. To normalize the binding signal, the CD3 binding was divided by the anti-huIgG response (the signal (RU) obtained upon capture of the CD3 antibody on the immobilized anti-huIgG antibody). The relative binding activity was calculated by referencing each temperature stressed sample to the corresponding, non-stressed sample.
The experiment was performed as described in Example 4, using the TCB molecules prepared in Example 7.

Assay [6] has the same target. The assay is described as above. As to the method: as §4, §5
This is another data set of the same source.

The target is the same in assay [7]. Description: SPR, TCB captured by anti-PG antibody, antigen as analyte, 25°C. This is another data set of the same source. A general note: Surface plasmon resonance follows binding to a sensor surface in real time, without labels.
Assay [8] has the same target. Described as above.
From the text: as §1
(§6) To analyze the interaction to CD3, TCB molecules were captured for 80 s at 25 nM with a flow rate of 10 μl/min. […] The dissociation was monitored for 800 s.
as §2
This is another data set of the same source.

Assay [9] deals with T3, Cynomolgus CD3ε stalk-Fc(knob)-Avi/CD3δ …. Described as above.
From the text: as §1, §6, §2
The source holds these as a separate data set.

T1 sequence (Q9NZD1 whole entry): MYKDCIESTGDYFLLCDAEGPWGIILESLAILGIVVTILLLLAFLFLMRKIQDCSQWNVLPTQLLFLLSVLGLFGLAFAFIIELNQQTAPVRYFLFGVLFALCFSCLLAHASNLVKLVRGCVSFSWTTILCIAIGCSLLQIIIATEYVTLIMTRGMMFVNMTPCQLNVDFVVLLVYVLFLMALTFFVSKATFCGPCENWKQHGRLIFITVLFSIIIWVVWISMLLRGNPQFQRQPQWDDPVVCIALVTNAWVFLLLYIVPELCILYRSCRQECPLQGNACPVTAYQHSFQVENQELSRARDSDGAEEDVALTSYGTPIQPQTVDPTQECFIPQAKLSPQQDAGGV
Sequence of human CD3 on cells (CD3ε) (P07766 23-207 limits assumed): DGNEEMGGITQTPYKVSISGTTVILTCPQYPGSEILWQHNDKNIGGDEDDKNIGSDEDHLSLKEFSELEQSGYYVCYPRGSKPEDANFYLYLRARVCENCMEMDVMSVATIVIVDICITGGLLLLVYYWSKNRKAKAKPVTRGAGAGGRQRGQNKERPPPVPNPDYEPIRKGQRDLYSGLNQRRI

B1: GPRC5D-TCB, GPRC5D CD3 variant P033.078 (bispecific antibody, human IgG1, kappa, L234A L235A)
heavy 1: not shown
heavy 2: EVQLVESGGGVVQPGRSLRLSCAASGFSFSNYGMAWVRQAPGKGLEWVASISTGGGNTYYRDSVKGRFTISRDNAKNTLYLQMNSLRAEDTAVYYCTRHDRGGLYWGQGTMVTVSSASTKGPSVFPLAPSSKSTSGGTAALGCLVEDYFPEPVTVSWNSGALTSGVHTFPAVLQSSGLYSLSSVVTVPSSSLGTQTYICNVNHKPSNTKVDEKVEPKSCDKTHTCPPCPAPEAAGGPSVFLFPPKPKDTLMISRTPEVTCVVVDVSHEDPEVKFNWYVDGVEVHNAKTKPREEQYNSTYRVVSVLTVLHQDWLNGKEYKCKVSNKALGAPIEKTISKAKGQPREPQVCTLPPSRDELTKNQVSLSCAVKGFYPSDIAVEWESNGQPENNYKTTPPVLDSDGSFFLVSKLTVDKSRWQQGNVFSCSVMHEALHNHYTQKSLSLSP
light 1: DIVMTQSPLSLPVTPGEPASISCRSSKSLLHSNGITYVYWYLQKPGQSPQLLIYRMSNRASGVPDRFSGSGSGTDFTLKISRVEAEDVGVYHCGQLLENPYTFGQGTKLEIKRTVAAPSVFIFPPSDRKLKSGTASVVCLLNNFYPREAKVQWKVDNALQSGNSQESVTEQDSKDSTYSLSSTLTLSKADYEKHKVYACEVTHQGLSSPVTKSFNRGEC
light 2: EVQLLESGGGLVQPGGSLRLSCAASGFTFESYAMNWVRQAPGKGLEWVSRIRSKYNEYATYYADSVKGRFTISRDDSKNTLYLQMNSLRAEDTAVYYCVRASNFPSSFVSYFGYWGQGTLVTVSSASVAAPSVFIFPPSDEQLKSGTASVVCLLNNFYPREAKVQWKVDNALQSGNSQESVTEQDSKDSTYSLSSTLTLSKADYEKHKVYACEVTHQGLSSPVTKSFNRGEC
notes: 2+1 IgG CrossFab, inverted; human IgG1 Fc, knob-into-hole, PGLALA; also called P033.078 in GPRC5D-TCB format
With B1, in [1], the binding result was “binds”. In assay [2], the dissociation constant Kd (commonly the equilibrium constant for the complex coming apart) is 547 pM; the off-rate constant (koff) (in general, a measure of how fast the partners let go of each other) was determined as 0.000948 s⁻¹; the on-rate constant (kon) (in general, the second-order rate constant of association) was 1.74e+06 M⁻¹ s⁻¹; the t1/2 came out at 12.2 min. In [3], this molecule yielded a dissociation constant Kd of 333 pM, an off-rate (koff) of 0.000688 s⁻¹, a kon of 2.07e+06 M⁻¹ s⁻¹ and a t1/2 of 16.8 min. For the same molecule, the “EC50 20 h (pM), T-cell mediated lysis of GPRC5D-expressing NCI-H929 cells” value (“EC50 20 h (pM), T-cell mediated lysis” for short) in assay [4] amounted to 0.41 pM. Moreover, in assay [5], the “binding activity [%] after 2 weeks at pH 6.0/40°C” value worked out at 99% and the “binding activity [%] after 2 weeks at pH 7.4/37°C” value came out at 98%.

B2: GPRC5D-TCB, GPRC5D CD3 variant P035.093 (bispecific antibody, human IgG1, kappa, L234A L235A)
heavy 1: not shown
heavy 2: B1 heavy 2
light 1: B1 light 1
light 2: B1 light 2 with E30S, E57N, S106A, F108Y, G113A
notes: 2+1 IgG CrossFab, inverted; human IgG1 Fc, knob-into-hole, PGLALA; also called P035.093 in GPRC5D-TCB format
As for B2, the binding result in assay [1] was “binds”. In [2], this molecule showed a Kd of 377 pM, a koff of 0.0013 s⁻¹, an on-rate constant (kon) of 3.46e+06 M⁻¹ s⁻¹ and a t1/2 of 8.89 min. In [3], this molecule came in with a dissociation constant Kd of 241 pM, a koff of 0.000866 s⁻¹, a kon of 3.61e+06 M⁻¹ s⁻¹ and a t1/2 of 13.3 min. Besides, in [4], the “EC50 20 h (pM), T-cell mediated lysis” value worked out at 0.31 pM. In addition, in [5], the “binding activity [%] after 2 weeks at pH 6.0/40°C” value amounted to 100% and the “binding activity [%] after 2 weeks at pH 7.4/37°C” value turned out to be 97%.

B3: GPRC5D-TCB, GPRC5D CD3 variant P004.042 (bispecific antibody, human IgG1, kappa, L234A L235A)
heavy 1: not shown
heavy 2: B1 heavy 2
light 1: B1 light 1
light 2: B1 light 2 with T28Q, E30D, S31N, S53T, S106Q, F108Y
notes: 2+1 IgG CrossFab, inverted; human IgG1 Fc, knob-into-hole, PGLALA; also called P004.042 in GPRC5D-TCB format
Turning to B3, in assay [1], the binding result is listed as “binds”. In assay [2], binding was characterised by a dissociation constant (Kd) of 1210 pM, the dissociation rate constant (koff) came out at 0.00265 s⁻¹, the association rate constant (kon) was 2.2e+06 M⁻¹ s⁻¹ and the t1/2 is 4.36 min. For the same molecule, in assay [3], the Kd was 599 pM, the off-rate constant (koff) is 0.00163 s⁻¹, the on-rate constant (kon) stood at 2.72e+06 M⁻¹ s⁻¹ and the t1/2 was 7.09 min. Moreover, the “EC50 20 h (pM), T-cell mediated lysis” value in assay [4] amounted to 0.87 pM. Moreover, in [5], the “binding activity [%] after 2 weeks at pH 6.0/40°C” value stood at 100% and the “binding activity [%] after 2 weeks at pH 7.4/37°C” value is 99%.

B4: TYRP1-TCB with anti-CD3 antibody clone P033.078 (bispecific antibody, human IgG1, kappa, L234A L235A)
heavy 1: not shown
heavy 2: QVQLVQSGAEVKKPGASVKVSCKASGFNIKDYFLHWVRQAPGQGLEWMGWINPDNGNTVYAQKFQGRVTMTADTSTSTVYMELSSLRSEDTAVYYCTRRDYTYEKAALDYWGQGTLVTVSSASTKGPSVFPLAPSSKSTSGGTAALGCLVEDYFPEPVTVSWNSGALTSGVHTFPAVLQSSGLYSLSSVVTVPSSSLGTQTYICNVNHKPSNTKVDEKVEPKSCDKTHTCPPCPAPEAAGGPSVFLFPPKPKDTLMISRTPEVTCVVVDVSHEDPEVKFNWYVDGVEVHNAKTKPREEQYNSTYRVVSVLTVLHQDWLNGKEYKCKVSNKALGAPIEKTISKAKGQPREPQVCTLPPSRDELTKNQVSLSCAVKGFYPSDIAVEWESNGQPENNYKTTPPVLDSDGSFFLVSKLTVDKSRWQQGNVFSCSVMHEALHNHYTQKSLSLSP
light 1: DIQMTQSPSSLSASVGDRVTITCRASGNIYNYLAWYQQKPGKVPKLLIYDAKTLADGVPSRFSGSGSGTDFTLTISSLQPEDVATYYCQHFWSLPFTFGQGTKLEIKRTVAAPSVFIFPPSDRKLKSGTASVVCLLNNFYPREAKVQWKVDNALQSGNSQESVTEQDSKDSTYSLSSTLTLSKADYEKHKVYACEVTHQGLSSPVTKSFNRGEC
light 2: B1 light 2
notes: human IgG1 Fc, knob-into-hole, P329G L234A L235A; also called P033.078 in TCB format
Take B4: in assay [6], the “binding activity [%] after 2 weeks at pH 6.0/40°C” value was determined as 99% and the “binding activity [%] after 2 weeks at pH 7.4/37°C” value is 99%. In assay [7], the “fold higher binding half-life than CD3orig” value was at most 6 fold. Besides, in assay [8], the Kd was found to be 600 pM, the koff stood at 0.000996 s⁻¹, the kon came out at 1.66e+06 M⁻¹ s⁻¹ and the t1/2 was determined as 11.6 min. In assay [9], this molecule showed a Kd of 370 pM, a koff of 0.000802 s⁻¹, an on-rate constant (kon) of 2.2e+06 M⁻¹ s⁻¹ and a t1/2 of 14.4 min.
